Target: T1, PrimPol (endogenous, OVCAR8), Q96LW4
T1 chain: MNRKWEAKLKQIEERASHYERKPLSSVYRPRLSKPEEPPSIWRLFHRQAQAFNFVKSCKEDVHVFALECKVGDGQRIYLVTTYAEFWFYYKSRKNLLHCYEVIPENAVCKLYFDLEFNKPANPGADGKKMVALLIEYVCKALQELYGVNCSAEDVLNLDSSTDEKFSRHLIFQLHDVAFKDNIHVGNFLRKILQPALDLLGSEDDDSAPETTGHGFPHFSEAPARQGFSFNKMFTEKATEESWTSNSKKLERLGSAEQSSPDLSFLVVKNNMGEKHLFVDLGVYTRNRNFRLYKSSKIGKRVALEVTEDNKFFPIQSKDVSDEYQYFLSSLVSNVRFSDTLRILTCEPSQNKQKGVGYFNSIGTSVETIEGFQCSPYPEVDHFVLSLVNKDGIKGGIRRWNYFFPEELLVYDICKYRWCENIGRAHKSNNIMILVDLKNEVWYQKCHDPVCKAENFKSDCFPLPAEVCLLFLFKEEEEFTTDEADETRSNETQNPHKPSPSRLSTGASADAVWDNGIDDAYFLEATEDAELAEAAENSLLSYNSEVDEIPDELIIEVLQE
Experiment: in situ proximity ligation assay (PLA)
Conditions: chain shown with the change, USP36 stably knock-down OVCAR8 cells, read off a plot

B1: USP36-wild-type (WT), transfected in OVCAR8, Q9P275 K329R; K338R (protein)
chain: MPIVDKLKEALKPGRKDSADDGELGKLLASSAKKVLLQKIEFEPASKSFSYQLEALKSKYVLLNPKTEGASRHKSGDDPPARRQGSEHTYESCGDGVPAPQKVLFPTERLSLRWERVFRVGAGLHNLGNTCFLNATIQCLTYTPPLANYLLSKEHARSCHQGSFCMLCVMQNHIVQAFANSGNAIKPVSFIRDLKKIARHFRFGNQEDAHEFLRYTIDAMQKACLNGCAKLDRQTQATTLVHQIFGGYLRSRVKCSVCKSVSDTYDPYLDVALEIRQAANIVRALELFVKADVLSGENAYMCAKCKKKVPASKRFTIHRTSNVLTLSLRRFANFSGGRITKDVGYPEFLNIRPYMSQNNGDPVMYGLYAVLVHSGYSCHAGHYYCYVKASNGQWYQMNDSLVHSSNVKVVLNQQAYVLFYLRIPGSKKSPEGLISRTGSSSLPGRPSVIPDHSKKNIGNGIISSPLTGKRQDSGTMKKPHTTEEIGVPISRNGSTLGLKSQNGCIPPKLPSGSPSPKLSQTPTHMPTILDDPGKKVKKPAPPQHFSPRTAQGLPGTSNSNSSRSGSQRQGSWDSRDVVLSTSPKLLATATANGHGLKGNDESAGLDRRGSSSSSPEHSASSDSTKAPQTPRSGAAHLCDSQETNCSTAGHSKTPPSGADSKTVKLKSPVLSNTTTEPASTMSPPPAKKLALSAKKASTLWRATGNDLRPPPPSPSSDLTHPMKTSHPVVASTWPVHRARAVSPAPQSSSRLQPPFSPHPTLLSSTPKPPGTSEPRSCSSISTALPQVNEDLVSLPHQLPEASEPPQSPSEKRKKTFVGEPQRLGSETRLPQHIREATAAPHGKRKRKKKKRPEDTAASALQEGQTQRQPGSPMYRREGQAQLPAVRRQEDGTQPQVNGQQVGCVTDGHHASSRKRRRKGAEGLGEEGGLHQDPLRHSCSPMGDGDPEAMEESPRKKKKKKRKQETQRAVEEDGHLKCPRSAKPQDAVVPESSSCAPSANGWCPGDRMGLSQAPPVSWNGERESDVVQELLKYSSDKAYGRKVLTWDGKMSAVSQDAIEDSRQARTETVVDDWDEEFDRGKEKKIKKFKREKRRNFNAFQKLQTRRNFWSVTHPAKAASLSYRR
response (PLA puncta / cell) (HU (10 mM) for 4 h, parent: est. 17): 15 | response (PLA puncta / cell) (untreated (Ctrl), parent: est. 11): 15

Reference: publication PMC7736794
